Experimental data from US20120077224A1 (SALK INSTITUTE FOR BIOLOGICAL STUDIES, published 2012).
Non-standard residues stand in square brackets, D forms with d. Phe(4-N3) = [N-]=[N+]=Nc1ccc(C[C@H](N)C(=O)O)cc1

Legend:
[1] = biological target: the molecule itself; assay: in-cell photocrosslinking of the GST homodimer (365 nm, 10 min), band intensity ratio on anti-His Western blot
Experimental: E. coli GST is homodimer (Nishida et al., J. Mol. Biol., 1998, 281:135-147). Three sites at the dimer interface, Asn87 in a loop and Tyr92 and Val125 in α-helices were chosen for incorporating Azi (FIG. 10A). GST genes with TAG mutation at these sites and a C-terminal His6 tag were cotransfected with the orthogonal tRNACUA^Tyr/EAziRS pair in HEK293 cells, and the cells were grown in the presence of 1 mM of Azi. Photocrosslinking was performed by exposing the cells under 365 nm UV light for 10 minutes. Cell lysates were separated on SDS-PAGE and probed with an antibody against the His6 tag.
After photocrosslinking, higher molecular weight bands around 46 kD emerged, accompanied by the intensity decrease of the monomer band (several faint bands between 23 kD and 46 kD were proteins in the cell lysate recognized by the penta-His antibody nonspecifically, which were also seen in samples without exposure to UV light). […] Crosslinked GST migrated at different positions in the gel depending on where Azi was incorporated.

[2] = biological target: the molecule itself; assay: in-cell photocrosslinking of the GST homodimer, anti-FLAG Western blot

B1: E. coli glutathione S-transferase (GST) with p-azidophenylalanine (Azi) incorporated at Val125 (125TAG), C-terminal His6 tag (enzyme)
chain: MKLFYKPGACSLASHITLRESGKDFTLVSVDLMKKRLENGDDYFAVNPKGQVPALLLDDGTLLTEGVAIMQYLADSVPDRQLLAPVNSISRYKTIEWLNYIATELHKGFTPLFRPDTPEEYKPT[Phe(4-N3)]RAQLEKKLQYVNEALKDEHWICGQRFTIADAYLFTVLRWAYAVKLNLEGLEHIAAFMQRMAERPEVQDALSAEGLKHHHHHH
notes: Expressed in HEK293/HEK293T cells with tRNACUA-Tyr/EAziRS and 1 mM Azi; crosslinked in live cells with 365 nm UV; X stands for the unnatural amino acid Azi
**Q.** B1 was tested. Which crosslinking efficiency [1] did it give?
**A.** Its crosslinking efficiency is 98%.

B2: E. coli glutathione S-transferase (GST) with p-azidophenylalanine (Azi) incorporated at Val125 (125TAG), C-terminal FLAG tag (enzyme, UniProt P0A9D2 1-201, looked up)
chain: MKLFYKPGACSLASHITLRESGKDFTLVSVDLMKKRLENGDDYFAVNPKGQVPALLLDDGTLLTEGVAIMQYLADSVPDRQLLAPVNSISRYKTIEWLNYIATELHKGFTPLFRPDTPEEYKPT[Phe(4-N3)]RAQLEKKLQYVNEALKDEHWICGQRFTIADAYLFTVLRWAYAVKLNLEGLEHIAAFMQRMAERPEVQDALSAEGLK
modifications: not fully specified (C-terminus); also: homodimer
notes: not shown: C-terminal FLAG tag replacing the His6 tag
**Q.** Does B2 bind [2]?
**A.** Result: binds

B3: E. coli glutathione S-transferase (GST) with p-azidophenylalanine (Azi) incorporated at Asn87 (87TAG), C-terminal His6 tag (enzyme)
chain: MKLFYKPGACSLASHITLRESGKDFTLVSVDLMKKRLENGDDYFAVNPKGQVPALLLDDGTLLTEGVAIMQYLADSVPDRQLLAPV[Phe(4-N3)]SISRYKTIEWLNYIATELHKGFTPLFRPDTPEEYKPTVRAQLEKKLQYVNEALKDEHWICGQRFTIADAYLFTVLRWAYAVKLNLEGLEHIAAFMQRMAERPEVQDALSAEGLKHHHHHH
notes: Expressed in HEK293/HEK293T cells with tRNACUA-Tyr/EAziRS and 1 mM Azi; crosslinked in live cells with 365 nm UV; X stands for the unnatural amino acid Azi; also called GST 87TAG; site 87
**Q.** How did the crosslinking efficiency [1] turn out when B3 was run?
**A.** Its crosslinking efficiency is 33%.

B4: E. coli glutathione S-transferase (GST) with p-azidophenylalanine (Azi) incorporated at Tyr92 (92TAG), C-terminal His6 tag (enzyme)
chain: MKLFYKPGACSLASHITLRESGKDFTLVSVDLMKKRLENGDDYFAVNPKGQVPALLLDDGTLLTEGVAIMQYLADSVPDRQLLAPVNSISR[Phe(4-N3)]KTIEWLNYIATELHKGFTPLFRPDTPEEYKPTVRAQLEKKLQYVNEALKDEHWICGQRFTIADAYLFTVLRWAYAVKLNLEGLEHIAAFMQRMAERPEVQDALSAEGLKHHHHHH
notes: Expressed in HEK293/HEK293T cells with tRNACUA-Tyr/EAziRS and 1 mM Azi; crosslinked in live cells with 365 nm UV; X stands for the unnatural amino acid Azi; also called site 92; GST-His6
**Q.** Which crosslinking efficiency [1] does the source give for B4 here?
**A.** The crosslinking efficiency was 40%.

B5: E. coli glutathione S-transferase (GST) with p-azidophenylalanine (Azi) incorporated at Asn87 (87TAG), C-terminal FLAG tag (enzyme, UniProt P0A9D2 1-201, looked up)
chain: MKLFYKPGACSLASHITLRESGKDFTLVSVDLMKKRLENGDDYFAVNPKGQVPALLLDDGTLLTEGVAIMQYLADSVPDRQLLAPV[Phe(4-N3)]SISRYKTIEWLNYIATELHKGFTPLFRPDTPEEYKPTVRAQLEKKLQYVNEALKDEHWICGQRFTIADAYLFTVLRWAYAVKLNLEGLEHIAAFMQRMAERPEVQDALSAEGLK
modifications: not fully specified (C-terminus); also: homodimer
notes: as for B2
**Q.** Does B5 bind [2]?
**A.** Result: binds
